From publication PMC11246219 come the findings set out here.

This experiment deals with PELI2 (UniProt Q9HAT8). In words: anti-FLAG co-IP, phospho-STING blot quantified.

For STING (from UniProt Q86WV6) STING-5T>A, the “binding against the reference” value reads like this: (reference: STING only-T354, sites T354) “lost”; (reference: STING only-T356, sites T356) “lost”.
